Assay results published in US20200055951A1 (DONG A UNIVERSITY RESEARCH FOUNDATION FOR INDUSTRY ACADEMY …, published 2020).

Columns and labels:
[1] = target: T1, pancreatic adenocarcinoma upregulated factor (PAUF) protein (UniProt Q96DA0 17-172, limits assumed); assay: SPR, PAUF immobilized, antibody in flow at different concentrations
T1 construct: no tag is mentioned there; also called Antigen PAUF
T1 sequence (looked up): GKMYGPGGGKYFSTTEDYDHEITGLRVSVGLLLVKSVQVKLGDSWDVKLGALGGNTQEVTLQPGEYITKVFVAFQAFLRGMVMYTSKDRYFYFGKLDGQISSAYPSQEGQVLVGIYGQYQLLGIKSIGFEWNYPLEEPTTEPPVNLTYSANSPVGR
Experimental: Specifically, the antigen-antibody binding affinity was measured using the SPR method. Antigen PAUF was immobilized on the surface of a thin metal film and the antibody was diluted at different concentrations and allowed to pass through the metal surface. The antigen-antibody binding affinity was measured by measuring the time required for binding and dissociation between antigens and antibodies.

PAUF-His protein = target: T2, PAUF-His protein (UniProt Q96DA0 17-172, limits assumed); assay: indirect ELISA titration on PAUF-His, anti-human Fc-HRP; column head Kd (10^-9 M)
T2 construct: not shown: His tag
T2 sequence (looked up): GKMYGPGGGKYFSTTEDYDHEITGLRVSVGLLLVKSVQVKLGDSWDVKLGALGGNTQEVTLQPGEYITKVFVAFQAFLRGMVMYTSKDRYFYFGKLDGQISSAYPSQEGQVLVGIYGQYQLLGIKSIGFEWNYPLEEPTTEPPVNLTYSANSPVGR
Experimental: Specifically, indirect ELISA was performed. An immuno-plate was coated with the PAUF-His protein and treated with each antibody at different concentrations, and the results were analyzed using the anti-human Fc-HRP capable of recognizing the constant region of human antibody as the secondary antibody. In particular, as the concentration of each antibody increases, the OD value increases.

[2] = target: T1, pancreatic adenocarcinoma upregulated …; assay: indirect ELISA, PAUF-coated plate, HRP-labeled anti-mouse antibody
Experimental: Specifically, the affinity of the antigen-antibody was tested using indirect ELISA. The PAUF-coated immuno-plate was treated with the four kinds of antibodies (2H2, 4E6, 11 G6, and 20C5) at different concentrations and the OD values were measured using the HRP-labeled anti-mouse antibody. In particular, as the OD value becomes higher, the affinity of the antibody for the PAUF becomes higher. Additionally, for the measurement of the nonspecific binding of an anti-PAUF mouse monoclonal antibody, which has a high affinity for PAUF, to other antigenic proteins, the immuno-plate was coated with PAUF and unspecified antigens so as to perform indirect ELISA.

Binder	Kd (PAUF-His protein) [nM]	EC50 (read off the curve) [2] [µg/mL]	further results
hPMAb22 (anti-PAUF protein humanized antibody) (antibody, V domains shown, CDR-grafted humanized antibody with human constant regions; Expressed in HEK293 cells; also called 2H2-VH1/VL1; 2H2-VH1-VL1) VH: QVQLVQSGAEVKKPGASVKVSCKASGFNIKDYYMHWVRQAPGQGLEWMGWIDPENGNTNYAQKFQGRVTMTRDTSISTAYMELSRLRSDDTAVYYCARRAITTATAWFAYWGQGTLVTVSS VL: DIVMTQSPDSLAVSLGERATINCKSSQSLLNSRTRKNYLAWYQQKPGQPPKLLIYWASTRESGVPDRFSGSGSGTDFTLTISSLQAEDVAVYYCKQSYNLYTFGQGTKVEIK	–	–	Kd [1]: 0.194 nM
cPMAb22 (chimeric antibody of 2H2) (antibody, V domains shown, Mouse variable regions of 2H2 on human heavy and light chain constant regions (kappa light chain implied by the anti-human kappa secondary antibody); Expressed in HEK293 cells) VH: QVQLKQSGAELVRPGALVKLSCKASGFNIKDYYMHWVKQRPEQGLEWIGWIDPENGNTIYDPKFQGKASITADTSSNTAYLQLSSLTSEDTAVYYCARRAITTATAWFAYWGQGTLVTVSA VL: DIVMTQSPSSLAVSAGEKVTMSCKSSQSLLNSRTRKNYLAWYQQKPGQSPKLLIYWASTRESGVPDRFTGSGSGTDFTLTISSVQAEDLAVYYCKQSYNLYTFGAGTKLELK	0.01	–	–
2H2 (anti-PAUF protein mouse antibody) (antibody, V domains shown, Mouse monoclonal antibody; also called 21-12 [sic]) VH: QVQLKQSGAELVRPGALVKLSCKASGFNIKDYYMHWVKQRPEQGLEWIGWIDPENGNTIYDPKFQGKASITADTSSNTAYLQLSSLTSEDTAVYYCARRAITTATAWFAYWGQGTLVTVSA VL: DIVMTQSPSSLAVSAGEKVTMSCKSSQSLLNSRTRKNYLAWYQQKPGQSPKLLIYWASTRESGVPDRFTGSGSGTDFTLTISSVQAEDLAVYYCKQSYNLYTFGAGTKLELK	–	~0.05	–
cPMAb205 (chimeric antibody of 20C5) (antibody, V domains shown, Mouse variable regions of 20C5 on human heavy and light chain constant regions (kappa light chain implied by the anti-human kappa secondary antibody); Expressed in HEK293 cells) VH: QVQLKESGAELVRPGALVKLSCKASGFNIKDYYMHWVKQRPEQGLEWIGWIDPEHGNTIYDPKFQGKASLTADTSSNTAYLQLSSLTSEDTAVYYCARRGWLPAWFAYWGQGTLVTVSA VL: DIVMTQSPSSLAVSAGEKVTLSCKSSQSLLNSRTRKNYLAWYQQKPGQSPKLLIYWASTRESGVPDRFTGSGSGTDFTLTISSVQAEDLAVYYCKQSYNLYTFGGGTKLEIK	0.03	–	–
20C5 (anti-PAUF protein mouse antibody) (antibody, V domains shown, Mouse monoclonal antibody) VH: QVQLKESGAELVRPGALVKLSCKASGFNIKDYYMHWVKQRPEQGLEWIGWIDPEHGNTIYDPKFQGKASLTADTSSNTAYLQLSSLTSEDTAVYYCARRGWLPAWFAYWGQGTLVTVSA VL: DIVMTQSPSSLAVSAGEKVTLSCKSSQSLLNSRTRKNYLAWYQQKPGQSPKLLIYWASTRESGVPDRFTGSGSGTDFTLTISSVQAEDLAVYYCKQSYNLYTFGGGTKLEIK	–	~0.02	–
